B1: HIS-MtDELLA1 (natural protein, M. truncatula, UniProt A0A396IUP1 1-594, looked up)
chain: MKREHQESFGGGVISNNNKTNTNHLNSSKNINFGECSSMQNTNTKQNMWREEKETNGGGMDELLAALGYKVRSSDMADVAQKLEQLEMVMGSAQEEGINHLSSDTVHYDPTDLYSWVQTMLTELNPDSSQINDPLASLGSSSEILNNTFNDDSEYDLSAIPGMAAYPPQEENTAAKRMKTWSEPESEPAVVMSPPPAVENTRPVVLVDTQETGVRLVHTLMACAEAIQQKNLKLAEALVKHISLLASLQTGAMRKVASYFAQALARRIYGNPEETIDSSFSEILHMHFYESSPYLKFAHFTANQAILEAFAGAGRVHVIDFGLKQGMQWPALMQALALRPGGPPTFRLTGIGPPQADNTDALQQVGWKLAQLAQTIGVQFEFRGFVCNSIADLDPNMLEIRPGEAVAVNSVFELHTMLARPGSVEKVLNTVKKINPKIVTIVEQEANHNGPVFVDRFTEALHYYSSLFDSLEGSNSSSNNSNSNSTGLGSPSQDLLMSEIYLGKQICNVVAYEGVDRVERHETLTQWRSRMGSAGFEPVHLGSNAFKQASTLLALFAGGDGYRVEENNGCLMLGWHTRSLIATSAWKLPQNESK
notes: MtDELLA1 of Medicago truncatula; the trigger factor is inferred from the vector pCold-TF; also called HIS-tagged MtDELLA1; source: E. coli, purified (Ni-NTA Agarose); not shown: His tag, N-terminal, kept
B2: HIS-MtDELLA2 (natural protein, M. truncatula, UniProt A0A396GMX6 1-533, looked up)
chain: MKREHKLEHEDMSSGSGKSGVCWEDDGGGMDELLAVVGYKVKSSDMAEVAQKLEQLEQAMMGNNFHDHDESTIAQHLSNDTVHYNPSDISNWLQTMLSNFDPQPNNPSVNSDDNDLNAIPGKAIYAADEFTSRKRVKRNESVTVTTESTTTRPIMVVETQEKGIRLVHSLMACAEAVEQNNLKMAEALVKQIGYLAVSQEGAMRKVATYFAEGLARRIYGVFPQHSVSDSLQIHFYETCPNLKFAHFTANQAILEAFQGKSSVHVIDFSINQGMQWPALMQALALRPGGPPAFRLTGIGPPASDNSDHLQQVGWRLAQFAQTIHVQFEYRGFVANSLADLDASMLELRSPETESVAVNSVFELHKLNARPGALEKVFSVIRQIRPEIVTVVEQEANHNGPAFLDRFTESLHYYSTLFDSLEGSSVEPQDKAMSEVYLGKQICNVVACEGTDRVERHETLNQWRNRFNSAGFSPVHLGSNAFKQASMLLALFAGGDGYKVEENDGCLMLGWHTRPLIATSAWKLAAANSVVVSH
notes: MtDELLA2 of Medicago truncatula; the trigger factor is inferred from the vector pCold-TF; also called HIS-tagged MtDELLA2; source: E. coli, purified (Ni-NTA Agarose); not shown: His tag, N-terminal, kept

How the values were obtained:
Test in all cases: pull-down; MBP fusion on amylose resin captures purified HIS-tagged MtDELLA; western blot with anti-MBP and anti-HIS
Details in all cases: both partners purified
MBP-NSP2 = biological target: T1, MBP-NSP2 (M. truncatula, UniProt Q5NE24 1-508)
T1 construct: NSP2 of Medicago truncatula; source: E. coli, purified (amylose resin), held on the resin; not shown: MBP, N-terminal, kept
T1 sequence (Q5NE24 whole entry, the tested form may be a part): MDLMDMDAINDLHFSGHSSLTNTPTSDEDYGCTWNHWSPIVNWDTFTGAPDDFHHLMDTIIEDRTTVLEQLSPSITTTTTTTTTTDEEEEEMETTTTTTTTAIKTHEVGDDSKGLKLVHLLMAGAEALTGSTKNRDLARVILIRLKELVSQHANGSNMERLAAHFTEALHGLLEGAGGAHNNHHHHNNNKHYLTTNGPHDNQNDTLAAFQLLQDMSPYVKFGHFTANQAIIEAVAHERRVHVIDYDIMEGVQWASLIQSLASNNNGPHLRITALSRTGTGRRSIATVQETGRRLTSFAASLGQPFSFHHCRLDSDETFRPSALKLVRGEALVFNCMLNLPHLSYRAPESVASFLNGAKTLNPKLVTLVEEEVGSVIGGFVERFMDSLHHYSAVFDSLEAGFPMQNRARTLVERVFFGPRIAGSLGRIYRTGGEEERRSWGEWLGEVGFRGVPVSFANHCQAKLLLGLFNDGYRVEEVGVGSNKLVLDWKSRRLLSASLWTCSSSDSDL

HIS-MtDELLA1 = biological target: B1
HIS-MtDELLA2 = biological target: B2

Binder | binding result (MBP-NSP2) | binding result (HIS-MtDELLA1) | binding result (HIS-MtDELLA2)
B1 | binds |  | 
B2 | binds |  | 
MBP-IPD3 (natural protein, M. truncatula, UniProt A7TUE1 1-513, looked up, IPD3 (CYCLOPS) of Medicago truncatula; also called MBP-IPD3 fusion protein; source: E. coli, purified (amylose resin), held on the resin; not shown: MBP, N-terminal, kept) MEGRGFSGLYKNSSEELFLKTVMESPIGMPVPTMEMLGFKTVSQSFRTDSEELFKRWLTNDQEGYNSSSMGLNSRLSKRISTEIANMSNQQHIGVASEGRNNDKSCLQNNFLANDVSSDFNFPIRDPVDRELQSSNLFLAKAWFITDQRMTRSRSSELRRRYTEMQNSQAPQGLDSMFMVPEHDTNTIKEELANFNGFDYLSMCELPSQKGTFMSPSNSSSSTFNTHQLVDVDKVSSCVSMLKGTLQRKKLECQVEKEAAEDGLNEIFCIREPLFQSAFNEEESWNQQKLVNVQGDFTDQVNDPGVMQTLEGTTNFVLDGFANQTNQIQGRTASGEPSQSESSAAAPVISSGLDACEGPSNSNQTLGDSSWKQVGESTQNKVRGVREQIMDNLKDDRKRKSLERYGSVTSAVSDGKMDNTKKRRVERSRKMAEAKERNLTPTIPSDMQAILKRCENLEKEVRSLKLNLSFMNRKDSEQTKQIEDLQKQNEDLADEKERLLEEIERILSETGKI |  | binds | binds
